Switch fluorescence ratio data for 78 sequences are collected here from the supplement of paper PMC10126150.

± gives the standard deviation of the averaged measurements.
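Note: ATP exposure 15 min at 22 °C before imaging.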

The data set deals with ATP. Kind of data set: switch fluorescence ratio, 500 uM ATP over buffer (Cy3 cluster intensity, sum of 5 cycles each) (fold (ratio)); higher = stronger signal-on switching upon ATP binding; sequences stand for … in TCGTCGGCAGCGTCAGATGTGTATAAGAGACAGTTTTTTTTTTTTTTTTTTTTTTTTT…TC. Conditions: aptamer strand: ATP DNA aptamer (quencher-CACCTGGGGGAGTATTGCGGAGGAAGG + anchor), 100 nM annealed; ATP concentration: 500 uM. A digest of the protocol: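 The fluorescence ratio divides summed target-cycle Cy3 intensity by summed buffer-cycle Cy3 intensity for each cluster and is averaged per switch-domain sequence. Cy3-labelled switching-strand clusters on a modified Illumina MiSeq flow-cell were annealed to 100 nM quencher-labelled ATP aptamer, then imaged in selection buffer and again after 15 min with 500 uM ATP at 22 °C. Five such cycles were run, with NaOH stripping and re-annealing between them, and clusters outside 100-1000 RFU were excluded.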
With AAGGTAATTT, the switch fluorescence ratio is 1.01 ± 0.03.

Regarding CTGGGGGGAG, the switch fluorescence ratio was 1.01 ± 0.024.

In the case of TTGGGACAAA, the switch fluorescence ratio was found to be 1.05 ± 0.061.

As for TTGAAGTCCG, the switch fluorescence ratio was 1.03 ± 0.026.

With TAAAGAGGGT, the switch fluorescence ratio was determined as 1 ± 0.033.

TCGAAATAGG: the switch fluorescence ratio worked out at 1.005 ± 0.0023.

On to CAGCAGGCGT, for which the switch fluorescence ratio was determined as 1.03 ± 0.021.

With ATAGTGGGGA, the switch fluorescence ratio amounted to 1.04 ± 0.026.

In the case of AAGAATATTT, the switch fluorescence ratio is 1.01 ± 0.012.

As for TCATGGGGCT, the switch fluorescence ratio came out at 1.02 ± 0.019.

Consider GGTCGCTGCG, for which the switch fluorescence ratio was 0.9956 ± 0.0069.

For ACGCGGTCGG, the switch fluorescence ratio is 1.08 ± 0.044.

For TGGGTTTAAC, the switch fluorescence ratio stood at 1.08 ± 0.18.

As for CGGAGGTAAG, the switch fluorescence ratio stood at 0.994 ± 0.011.

With TGGGTCTAGG, the switch fluorescence ratio came out at 0.99 ± 0.043.

For GATATCCGTT, the switch fluorescence ratio came to 0.976 ± 0.016.

In the case of GGCTCACTAG, the switch fluorescence ratio was 1.01 ± 0.05.

Take TTTAGCACAG: the switch fluorescence ratio came out at 1.06 ± 0.017.

On to GGGGACCTAT, for which the switch fluorescence ratio came out at 1.02 ± 0.018.

Consider GCTTTAGTTC, for which the switch fluorescence ratio worked out at 1.03 ± 0.003.

ATTTCTTGGG: the switch fluorescence ratio is 0.99703 ± 0.00034.

Consider TTATACCAAT, for which the switch fluorescence ratio amounted to 1.013 ± 0.0022.

On to GCGTTTGGAC, for which the switch fluorescence ratio stood at 1.056 ± 0.01.

As for CGTTGCACCT, the switch fluorescence ratio turned out to be 0.952 ± 0.051.

For the sequence TGAAAATGCG, the switch fluorescence ratio came to 1.01 ± 0.057.

TGTGTAATTG: the switch fluorescence ratio turned out to be 1.01 ± 0.032.

In the case of CCTTTTCAGC, the switch fluorescence ratio came to 1.12 ± 0.025.

Turning to CTTGGTAGTG, the switch fluorescence ratio was found to be 0.959 ± 0.015.

With GGAAACGGGG, the switch fluorescence ratio was found to be 1.001 ± 0.0064.

On to ACTGTCCCGT, for which the switch fluorescence ratio turned out to be 1.019 ± 0.0029.

As to TGAGTTATG, the switch fluorescence ratio was determined as 1.0034 ± 0.00041.

As to CCTATTTATT, the switch fluorescence ratio stood at 1.01 ± 0.02.

As to GGGGTCGGTC, the switch fluorescence ratio amounted to 1 ± 0.023.

Consider TGGGACTTTG, for which the switch fluorescence ratio was found to be 1.0328 ± 0.001.

With GTGGGATAAT, the switch fluorescence ratio worked out at 1.02 ± 0.021.

With CGTGAAAGCA, the switch fluorescence ratio is 1.02 ± 0.067.

With TTTTTTCCGT, the switch fluorescence ratio was found to be 1.07 ± 0.16.

Take CCATTGTAAT: the switch fluorescence ratio amounted to 1.1 ± 0.024.

TTTTTAGAAA: the switch fluorescence ratio is 0.971 ± 0.011.

CGTGGGGTGG: the switch fluorescence ratio came to 1.02 ± 0.045.

In the case of TATGCGTCGA, the switch fluorescence ratio turned out to be 0.979 ± 0.013.

Consider TTGGAGGTCG, for which the switch fluorescence ratio was determined as 1.03 ± 0.019.

Regarding AGCAGGGGTG, the switch fluorescence ratio came to 1.09 ± 0.013.

For the sequence GTGTGCGGGG, the switch fluorescence ratio was 1.06 ± 0.079.

Take GTTGGTGGGG: the switch fluorescence ratio was 0.957 ± 0.035.

As to AAAACGGAAC, the switch fluorescence ratio is 1.05 ± 0.028.

As to AGTTAAATTT, the switch fluorescence ratio is 0.994 ± 0.035.

For ATAATCGAGT, the switch fluorescence ratio came to 0.9837 ± 0.0076.

In the case of GATATAGAGG, the switch fluorescence ratio is 0.986 ± 0.055.

Turning to CCTCGGGAAA, the switch fluorescence ratio amounted to 1.06 ± 0.1.

Regarding TGACGTTTTG, the switch fluorescence ratio turned out to be 0.9792 ± 0.0046.

With GGGCTCAGGC, the switch fluorescence ratio was 0.988 ± 0.0094.

As to GAAGGGTACG, the switch fluorescence ratio turned out to be 1.07 ± 0.091.

In the case of AGTGGACGGG, the switch fluorescence ratio is 0.994 ± 0.023.

In the case of GATGAGAGGG, the switch fluorescence ratio turned out to be 1.002 ± 0.0059.

In the case of AATTAAGGAT, the switch fluorescence ratio came to 0.975 ± 0.032.

For TTGTACCAAA, the switch fluorescence ratio is 0.992 ± 0.047.

In the case of TTCCAATTTG, the switch fluorescence ratio was determined as 1 ± 0.014.

As for TACTTATCCT, the switch fluorescence ratio turned out to be 1.05 ± 0.042.

Regarding GTTTTATAGG, the switch fluorescence ratio was found to be 0.965 ± 0.021.

With GTAAAGTTTT, the switch fluorescence ratio turned out to be 0.991 ± 0.018.

As for GCGGACAGGA, the switch fluorescence ratio is 1 ± 0.029.

For TTTGAGGAGC, the switch fluorescence ratio is 1.035 ± 0.0028.

With TGACGGCGGA, the switch fluorescence ratio was found to be 1.02 ± 0.023.

As to TTGACTTGTC, the switch fluorescence ratio was 0.9991 ± 0.0069.

In the case of TCTTATATTT, the switch fluorescence ratio was 0.9977 ± 0.0021.

For ATAAGAGGAG, the switch fluorescence ratio was found to be 0.995 ± 0.022.

For GGTACGGGGG, the switch fluorescence ratio was found to be 1 ± 0.013.

Regarding CGGTTAGGAT, the switch fluorescence ratio amounted to 0.994 ± 0.0078.

Turning to CGGGGACTTG, the switch fluorescence ratio was 0.987 ± 0.029.

On to CCTTTTTGAA, for which the switch fluorescence ratio is 0.986 ± 0.049.

For TTTAGAAAAT, the switch fluorescence ratio was 1.01 ± 0.0098.

For AAGTCGCATT, the switch fluorescence ratio was 1.03 ± 0.014.

On to TAAAAACCTT, for which the switch fluorescence ratio came to 1.43 ± 0.35.

Regarding CTGTTAGGGG, the switch fluorescence ratio is 0.967 ± 0.03.

As for TATCCAATCA, the switch fluorescence ratio was 0.9719 ± 0.0081.

For the sequence CACTAGAACC, the switch fluorescence ratio worked out at 1.0319 ± 8.9e-05.

In the case of TGTGAGGTGT, the switch fluorescence ratio came out at 1.02 ± 0.062.
